% Inhibition, percent inhibition of neutrophil binding to ICAM-R and Inhibition (%) data for 3 substances are collected here from patent US20030199423A1.

Test [1] concerns the target LFA-1 (CD18/CD11a) (human) (UniProt P20701). Description: inhibition of SKW3 cell adhesion to coated soluble ICAM-R, peptide 1-2 mg/ml.
For test [2] the target is unchanged. Description: inhibition of neutrophil adhesion to coated ICAM-R/Ig, antibody 15 µg/ml.
Test [3] has the same target. Description: inhibition of CD18-dependent adhesion of PMA-treated JY cells to coated shICAM-R, antibody 10 µg/ml; defines total CD18-dependent binding.

A word on the % Inhibition: it is the relative decrease from the control value, in per cent. Low values mean a weak effect, high ones a strong effect.

LFA-1 (CD18/CD11a) (human), sequence (P20701 26-1170, chain 1 of 2): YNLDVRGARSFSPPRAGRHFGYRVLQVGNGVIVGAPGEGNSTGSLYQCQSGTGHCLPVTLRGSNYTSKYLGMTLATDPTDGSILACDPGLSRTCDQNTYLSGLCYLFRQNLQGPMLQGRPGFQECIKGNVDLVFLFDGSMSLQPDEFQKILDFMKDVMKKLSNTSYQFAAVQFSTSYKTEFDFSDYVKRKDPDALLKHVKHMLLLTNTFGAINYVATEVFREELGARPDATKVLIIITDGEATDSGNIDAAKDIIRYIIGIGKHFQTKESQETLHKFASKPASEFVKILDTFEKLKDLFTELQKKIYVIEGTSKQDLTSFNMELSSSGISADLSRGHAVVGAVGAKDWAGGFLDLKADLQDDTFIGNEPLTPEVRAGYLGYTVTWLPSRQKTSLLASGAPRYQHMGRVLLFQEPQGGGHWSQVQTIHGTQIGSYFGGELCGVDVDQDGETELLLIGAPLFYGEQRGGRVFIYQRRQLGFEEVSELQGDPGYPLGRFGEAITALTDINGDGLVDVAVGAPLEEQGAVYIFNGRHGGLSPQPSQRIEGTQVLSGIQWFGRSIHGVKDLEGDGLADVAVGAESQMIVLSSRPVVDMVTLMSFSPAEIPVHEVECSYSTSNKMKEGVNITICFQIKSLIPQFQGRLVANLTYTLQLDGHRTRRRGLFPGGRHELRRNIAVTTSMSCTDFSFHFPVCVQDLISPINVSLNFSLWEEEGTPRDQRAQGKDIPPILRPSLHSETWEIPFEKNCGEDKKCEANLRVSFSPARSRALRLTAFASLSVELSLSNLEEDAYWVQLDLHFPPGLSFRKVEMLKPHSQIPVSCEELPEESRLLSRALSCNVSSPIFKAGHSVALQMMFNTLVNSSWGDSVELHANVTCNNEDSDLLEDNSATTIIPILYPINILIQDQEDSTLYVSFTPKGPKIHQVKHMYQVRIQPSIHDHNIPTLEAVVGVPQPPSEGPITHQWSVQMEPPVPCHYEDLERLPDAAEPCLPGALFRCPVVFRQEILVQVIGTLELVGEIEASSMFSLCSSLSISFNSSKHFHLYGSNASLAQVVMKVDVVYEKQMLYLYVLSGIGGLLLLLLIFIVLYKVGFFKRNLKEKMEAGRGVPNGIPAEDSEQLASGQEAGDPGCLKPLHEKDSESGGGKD
LFA-1 (CD18/CD11a) (human), sequence (P05107 23-769, chain 2 of 2, further chain): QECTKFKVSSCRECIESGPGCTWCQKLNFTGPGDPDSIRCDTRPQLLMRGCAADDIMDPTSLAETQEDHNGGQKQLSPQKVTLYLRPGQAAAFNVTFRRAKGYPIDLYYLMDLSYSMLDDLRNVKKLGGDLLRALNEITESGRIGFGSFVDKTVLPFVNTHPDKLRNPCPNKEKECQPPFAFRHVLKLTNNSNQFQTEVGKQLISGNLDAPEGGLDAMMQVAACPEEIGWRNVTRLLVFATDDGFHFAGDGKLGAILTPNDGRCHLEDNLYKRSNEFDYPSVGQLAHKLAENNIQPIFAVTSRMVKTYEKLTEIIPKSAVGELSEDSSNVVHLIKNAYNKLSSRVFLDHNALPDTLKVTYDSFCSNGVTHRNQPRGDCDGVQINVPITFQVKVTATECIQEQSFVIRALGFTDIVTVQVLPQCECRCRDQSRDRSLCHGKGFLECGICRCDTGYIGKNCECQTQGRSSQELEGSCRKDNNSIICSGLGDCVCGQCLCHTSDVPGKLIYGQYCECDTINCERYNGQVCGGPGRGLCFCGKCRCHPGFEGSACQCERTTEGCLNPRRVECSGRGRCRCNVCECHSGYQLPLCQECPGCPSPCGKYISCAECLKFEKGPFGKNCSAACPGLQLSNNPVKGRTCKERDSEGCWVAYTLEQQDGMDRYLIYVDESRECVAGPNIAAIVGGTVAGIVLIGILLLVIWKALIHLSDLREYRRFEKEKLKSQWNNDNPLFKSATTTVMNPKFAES

As to “ICAM-R domain 1 peptide (NGSQI), residues 72-76”, the % Inhibition in test [1] was found to be 26%.

Consider anti-CD11a monoclonal antibody TS1/22, for which the percent inhibition of neutrophil binding to ICAM-R in test [2] came out at 50%.

The substance anti-CD18 monoclonal antibody 60.3 came in with an Inhibition (%) in test [3] of 100%.
